Experimental data taken from patent publication US7572764B2, “Uses of chemically-modified cholinesterases for detoxification of organophosporus compounds” (priority 2001, dated 2009).

Assay: Clearance experiments in mice, pharmacokinetic profiles
Method: The pharmacokinetic profiles of non-modified and various preparations of PEG-modified AChE were resolved. Clearance experiments in mice (3 to 6 ICR male mice per enzyme sample) and analysis of pharmacokinetic profiles were carried out as described essentially previously [Kronman, C., et al. (1992), Gene 121, 295-304]. The study was approved by the local ethical committee on animal experiments. Mice were injected with the various rHuAChE preparations (40 μg/mouse in 0.2 ml PBS). Residual AChE activity in blood samples was measured and all values were corrected for background hydrolytic activity in the blood (using samples withdrawn 1 hour before performing the experiment). AChE activity values in samples removed immediately after injection were assigned a value of 100% and used for calculation of residual activity. […] This model enables determination of the parameters A and B which represent the fractions of the material removed from the circulation in the first-fast and second-slow elimination phases respectively, and T1/2α and T1/2β which represent the circulatory half-life values of the enzyme in the fast and slow phases. The pharmacokinetic parameters MRT (mean residence time, which reflects the average length of time the administered molecules are retained in the organism) and CL (clearance, which represents the proportionality factor relating the rate of substance elimination to its plasma concentration (CL=dose/area under the concentration-time curve), were independently obtained by analyzing the clearance data according to a noncompartmental pharmacokinetic model using the WinNonlin computer program. The comparative results are set forth in Table 3 below.

Molecule | circulatory residence time (in words) (mice) | T1/2[…] (circulatory half-life, fast phase, ICR mice, 40 μg/mouse) [h] | T1/2β (circulatory half-life, slow phase, ICR mice, 40 μg/mouse) [h] | A (% of total) (fraction removed in first-fast elimination phase, ICR mice, 40 μg/mouse) | B (% of total) (fraction removed in second-slow elimination phase, ICR mice, 40 μg/mouse) | MRT (mean residence time, noncompartmental model, mice) [h] | Clearance (noncompartmental model, ICR mice, 40 μg/mouse) [mL/min/kg]
PEGylated BChE (partially sialylated) (conjugate, UniProt P06276 29-602, looked up, PEG; partially sialylated) Cholinesterase: EDDIIIATKNGKVRGMNLTVFGGTVTAFLGIPYAQPPLGRLRFKKPQSLTKWSDIWNATKYANSCCQNIDQSFPGFHGSEMWNPNTDLSEDCLYLNVWIPAPKPKNATVLIWIYGGGFQTGTSSLHVYDGKFLARVERVIVVSMNYRVGALGFLALPGNPEAPGNMGLFDQQLALQWVQKNIAAFGGNPKSVTLFGESAGAASVSLHLLSPGSHSLFTRAILQSGSFNAPWAVTSLYEARNRTLNLAKLTGCSRENETEIIKCLRNKDPQEILLNEAFVVPYGTPLSVNFGPTVDGDFLTDMPDILLELGQFKKTQILVGVNKDEGTAFLVYGAPGFSKDNNSIITRKEFQEGLKIFFPGVSEFGKESILFHYTDWVDDQRPENYREALGDVVGDYNFICPALEFTKKFSEWGNNAFFYYFEHRSSKLPWPEWMGVMHGYEIEFVFGLPLERRDNYTKAEEILSRSIVKRWANFAKYGNPNETQNNSTSWPVFKSTEQKYLTLNTESTRIMTKLRAQQCRFWTSFFPKVLEMTGNIDEAEWEWKAGFHRWNNYMMDWKNQFNDYTSKKESCVGL | significantly increased | – | – | – | – | – | –
AChE-PEG-5000 high ratio (conjugate, UniProt P22303 32-614, looked up, PEG-5000, high ratio) Acetylcholinesterase: EGREDAELLVTVRGGRLRGIRLKTPGGPVSAFLGIPFAEPPMGPRRFLPPEPKQPWSGVVDATTFQSVCYQYVDTLYPGFEGTEMWNPNRELSEDCLYLNVWTPYPRPTSPTPVLVWIYGGGFYSGASSLDVYDGRFLVQAERTVLVSMNYRVGAFGFLALPGSREAPGNVGLLDQRLALQWVQENVAAFGGDPTSVTLFGESAGAASVGMHLLSPPSRGLFHRAVLQSGAPNGPWATVGMGEARRRATQLAHLVGCPPGGTGGNDTELVACLRTRPAQVLVNHEWHVLPQESVFRFSFVPVVDGDFLSDTPEALINAGDFHGLQVLVGVVKDEGSYFLVYGAPGFSKDNESLISRAEFLAGVRVGVPQVSDLAAEAVVLHYTDWLHPEDPARLREALSDVVGDHNVVCPVAQLAGRLAAQGARVYAYVFEHRASTLSWPLWMGVPHGYEIEFIFGIPLDPSRNYTAEEKIFAQRLMRYWANFARTGDPNEPRDPKAPQWPPYTAGAQQYVSLDLRPLEVRRGLRAQACAFWNRFLPKLLSATDTLDEAERQWKAEFHRWSSYMVHWKNQFDHYSKQDRCSDL | – | 0.467 ± 0.083 | 9 ± 1.17 | 46 ± 3 % of total | 64 ± 3 % of total | 12.3 ± 1.33 | 0.22
